Data: article doi:10.1101/2022.04.06.487297 (bioRxiv, 2022)

Target: cortactin SH3 domain (UniProt Q60598 488-546)
Assay: NMR titration

Sequence of cortactin SH3 domain (Q60598 488-546): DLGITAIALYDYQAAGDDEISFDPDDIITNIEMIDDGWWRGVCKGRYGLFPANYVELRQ

Binder | Kd
TAFQEPPPKPSRPKYRPPP [Pyk2-PRR2 peptide] | 40 ± 5 µM
EFTGPPQKPPRLGAQS [Pyk2-PRR3 peptide] | 650 ± 10 µM
TAFQEPAPKASQAQYRPPP [Pyk2 super-mutant peptide] | > 1000 µM
